Test results published in PMC3113405 (Nature structural & molecular biology, 2010).
Values belong to the binder of their own block, whether it stands above or below them.

Legend:
[1] = molecular target: T1, Cog2 with an N-terminal 7×His tag (S. cerevisiae, UniProt P53271 1-262); assay: negative-stain single-particle electron microscopy with GFP labelling
T1 sequence (looked up): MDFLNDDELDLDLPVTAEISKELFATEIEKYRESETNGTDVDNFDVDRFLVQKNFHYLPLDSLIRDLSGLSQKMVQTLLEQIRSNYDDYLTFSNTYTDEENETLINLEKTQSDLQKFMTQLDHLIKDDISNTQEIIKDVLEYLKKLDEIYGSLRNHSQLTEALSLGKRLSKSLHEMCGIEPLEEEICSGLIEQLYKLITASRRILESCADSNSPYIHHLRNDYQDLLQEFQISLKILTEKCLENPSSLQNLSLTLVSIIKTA

Cog8 = molecular target: T2, Cog8 (S. cerevisiae, UniProt Q04632 1-607); assay: negative-stain single-particle electron microscopy
T2 sequence (looked up): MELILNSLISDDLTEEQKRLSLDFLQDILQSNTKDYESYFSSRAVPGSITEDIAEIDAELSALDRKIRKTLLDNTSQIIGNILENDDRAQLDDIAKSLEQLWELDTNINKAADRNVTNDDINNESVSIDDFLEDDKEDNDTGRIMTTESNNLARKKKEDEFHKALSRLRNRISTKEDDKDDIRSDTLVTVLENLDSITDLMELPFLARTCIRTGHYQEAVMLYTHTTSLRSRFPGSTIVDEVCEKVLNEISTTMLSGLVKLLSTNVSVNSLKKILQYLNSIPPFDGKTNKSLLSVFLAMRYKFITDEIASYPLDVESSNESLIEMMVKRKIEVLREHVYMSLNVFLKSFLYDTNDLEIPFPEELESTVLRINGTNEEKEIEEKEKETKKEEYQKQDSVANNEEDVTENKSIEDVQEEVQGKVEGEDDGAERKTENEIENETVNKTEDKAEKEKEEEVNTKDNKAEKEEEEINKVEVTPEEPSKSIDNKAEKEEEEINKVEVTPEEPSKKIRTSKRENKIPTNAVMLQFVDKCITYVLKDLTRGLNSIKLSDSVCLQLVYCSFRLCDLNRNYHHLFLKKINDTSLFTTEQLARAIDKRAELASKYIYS

stoichiometry N [1]: 1 | binding result (Cog8): binds
B1: Cog1 (natural protein, S. cerevisiae, UniProt P53079 1-417, looked up)
chain: MDEVLPLFRDSHIPQIKDYQLELQNDLTKTNEAFQKNLLKNYNKILSLTDSVNDLSLNLKNVDQDFKSLCFNDEKFQLNKLTPLPYQTTTHISPPRDEEKVSIPSQNILVISNWTISINNFCNRIVTSTTPSRIFDELLLNFHELSLIPVPSKFEALVKDKCCRLQKFLVDSMKTLNLTLLQWVKLYNLLNTEFSSKWDDDLLSIFNESLFETLFNDNVQALLISSANSKDHQYHSNQQYKDAIVVDFVNSSTFRDHLIRRTVKEINTHLDTLSTLRAKLKEPETLHKLDIFHDNDTNLNDGTVSPLDDDALKQYIDTAVFYSKGLTNDTTLQIYQTVQPTIEILQNLELYKCPQETLTDLRNKLITQLQEFKTQISSRLPSPLENSTSVVDDFITSYNNHNLLQLVIDQITQLRQQ

stoichiometry N [1]: 1
B2: Cog3 (natural protein, S. cerevisiae, UniProt P40094 1-801, looked up)
chain: MARSRKNSLVRDIASHPTIPESQTIVGLLDDSYLFDKLKKLSLAVENSDSLQRTDVSEGCSEVNGSEATTSADVKKTNKYLYYTTYLDQLNIKIDEYKVVLDQTRQVNDQLDSSIKKFRKISQDTGAFIEETKTIYEKQSKLSNLTESIPKALHYFEVLDPIMRRLNHATSPAIVKKSSFTTMLATIDESLRFLDENSDLKDAAAYRIKFKQCLIRACELISHFLTNLLKQTNQEILDKTKNKNSLTGLPSTTRDAFLYSKFYTIADTFKIQVSEIVKRSNEKAYNKYHDELNSILYECFNHYFQTRLRLLTPVIWSHIDEIVVKDKDQGLVKFIQDGKVYFQQLCADEYKLFVEFFPEKECRFKINQWFLQLCEPLYDSIRVRVLKETDICTLCDSVTLFAPYYEFEEGSEEYVKQFTDIQYDKLFEPIVQKVQARLILRVQIYVQQNILSYRPTRDVFMISNRRRKSKTSLQGGNEDATTSDDNPDPLLESYLSSFKNRSILPISPNDADDKSIDSEESTDKISQLQTYYPPLLKTLALLSKIYEMINSVVFDDLAHHVVHDCIVSLRNAYDMVIKSSAGKSDFNNLDISLAYLKNLLMLRDSIQNFNIQYTVNETYLDFSGVEGFFKSLKENGRNVLKKTKSSSILTLARELVPKVVNNMVDARTELISELRNVIKDFTESTSLELIDDTLDINSDEDLLSKNVKLRENIKARLPRIYEQILNYIDDQEIVTNLLDAVQELITQSYSKYYETITELAENGKFAKDQVADVMYLDVFTDFFAKEVADLLRNGDIDTITK

stoichiometry N [1]: 1
B3: Cog4 (natural protein, S. cerevisiae, UniProt Q06096 1-861, looked up)
chain: MEGQKSNASWESSIIEGQLSKNLARYTLLLDKLSTLSQIDKLSEVIANDYAKQSKQLNAFVQQSQSSLNKESRKLELQRTNLTTTLTQFHETVATISSSNARAKAIHDDIETVDQERALVNKTLQFVKDVRTLKNNISLAHSALETKDYLVAATAINEIRSLPDKKLIVSEFAKKVVPSSEIPEEPAILIKNWCKELTSLFQEQFMEATRTQDIKELTLMFKMFPMIGQDVLGLDLYSKYVCDIIADESRKIMSNSMENSTKFQGFFSQVLLHLFKIVSTIINDHSKVIATCYGKKHMVHVMEKVEKEADLQASLILDIFMETRKIERTIHDINEWEHSQKNEDVNIDSNQSDIETDGETEKSSIISIHDLALLIMEFSQILQNWSMYSRFYSVKWNEFSDLHPHVLQPPPPIADGKFALKLKQDKVFDEFQVFVLNHLQRSFRNSISLEELPSLNDLITAVPLNDHDNISYPVTSVLDDLILLVRKNLISVVNTGQFKLLASFLNELVKFFQNRFLVKFMQNKFKLLQSKLASNVSLKRYIPKGEEQSATSRSVSPPANKFSPLSRFTFRGAAASALTNIQSNLQAVVAEDEDSILALHHYLIYLNTLYLSKVYVHRLLSIEILEDDSQRILRDNFPFDNDAAQLQNLIINSEKLVLEQTDKLSKWAVKYLFQNILQNRVRNLLGTVFVNSASSNSSTSNQKNVSRDYSAGSNQKNYITSIEDFEDLSQINSFNSKWNQLIIPYKNILHNEAYAELLSVIVDYIVTTLEQRIWTLEFNELGVTKLDRELSLFIGNMCGLNYNLREKFLKLTQIVLLLGLDDDNFDLTTGDIKDDFNGTFDWVINSQERIKARNMKIDRTQ
